# Measured values: PMC8190030
# T1: N- (neural) cadherin of human fibroblasts (human (endogenous in primary fibroblasts)), P19022
# T1 chain: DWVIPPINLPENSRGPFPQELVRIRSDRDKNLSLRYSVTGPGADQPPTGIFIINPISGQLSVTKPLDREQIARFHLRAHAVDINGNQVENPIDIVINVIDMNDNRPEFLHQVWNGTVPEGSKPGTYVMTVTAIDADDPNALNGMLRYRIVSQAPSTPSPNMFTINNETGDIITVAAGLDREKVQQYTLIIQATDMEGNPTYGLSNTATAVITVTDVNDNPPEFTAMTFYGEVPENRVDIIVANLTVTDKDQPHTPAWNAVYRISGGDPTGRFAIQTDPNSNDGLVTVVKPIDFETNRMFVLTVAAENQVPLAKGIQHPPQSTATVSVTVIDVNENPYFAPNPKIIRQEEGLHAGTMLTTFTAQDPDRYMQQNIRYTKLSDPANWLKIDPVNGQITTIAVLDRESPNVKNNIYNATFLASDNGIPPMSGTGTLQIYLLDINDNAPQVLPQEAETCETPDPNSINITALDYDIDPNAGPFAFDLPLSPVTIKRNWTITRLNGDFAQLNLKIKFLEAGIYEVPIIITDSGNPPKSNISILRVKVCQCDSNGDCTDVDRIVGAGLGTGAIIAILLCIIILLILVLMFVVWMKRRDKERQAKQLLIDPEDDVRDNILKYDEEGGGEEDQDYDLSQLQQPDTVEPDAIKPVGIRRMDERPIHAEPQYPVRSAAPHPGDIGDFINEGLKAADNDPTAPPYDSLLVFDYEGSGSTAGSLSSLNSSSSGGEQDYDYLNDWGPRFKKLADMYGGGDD
# B1: N- (neural) cadherin of human fibroblasts, P19022 160-906 (natural protein)
# chain: DWVIPPINLPENSRGPFPQELVRIRSDRDKNLSLRYSVTGPGADQPPTGIFIINPISGQLSVTKPLDREQIARFHLRAHAVDINGNQVENPIDIVINVIDMNDNRPEFLHQVWNGTVPEGSKPGTYVMTVTAIDADDPNALNGMLRYRIVSQAPSTPSPNMFTINNETGDIITVAAGLDREKVQQYTLIIQATDMEGNPTYGLSNTATAVITVTDVNDNPPEFTAMTFYGEVPENRVDIIVANLTVTDKDQPHTPAWNAVYRISGGDPTGRFAIQTDPNSNDGLVTVVKPIDFETNRMFVLTVAAENQVPLAKGIQHPPQSTATVSVTVIDVNENPYFAPNPKIIRQEEGLHAGTMLTTFTAQDPDRYMQQNIRYTKLSDPANWLKIDPVNGQITTIAVLDRESPNVKNNIYNATFLASDNGIPPMSGTGTLQIYLLDINDNAPQVLPQEAETCETPDPNSINITALDYDIDPNAGPFAFDLPLSPVTIKRNWTITRLNGDFAQLNLKIKFLEAGIYEVPIIITDSGNPPKSNISILRVKVCQCDSNGDCTDVDRIVGAGLGTGAIIAILLCIIILLILVLMFVVWMKRRDKERQAKQLLIDPEDDVRDNILKYDEEGGGEEDQDYDLSQLQQPDTVEPDAIKPVGIRRMDERPIHAEPQYPVRSAAPHPGDIGDFINEGLKAADNDPTAPPYDSLLVFDYEGSGSTAGSLSSLNSSSSGGEQDYDYLNDWGPRFKKLADMYGGGDD
# Key:
# Details in all cases: remark: other sources report otherwise
# [1] = target: T1, N- (neural) cadherin of human …; experiment: AFM single-cell force spectroscopy; as a1, approach and retract velocity 7.5 µm/sec
# [2] = target: T1, N- (neural) cadherin of human …; experiment: AFM single-cell force spectroscopy; as a1, approach and retract velocity 5 µm/sec
# [3] = target: T1, N- (neural) cadherin of human …; experiment: AFM single-cell force spectroscopy; with 5 µM cytochalasin D (actin filaments disassembled); cell on cantilever against cell monolayer
# [4] = target: T1, N- (neural) cadherin of human …; experiment: AFM single-cell force spectroscopy; DMSO control of the drug series; cell on cantilever against cell monolayer
# [5] = target: T1, N- (neural) cadherin of human …; experiment: AFM single-cell force spectroscopy; as a1, approach and retract velocity 10 µm/sec
# [6] = target: T1, N- (neural) cadherin of human …; experiment: AFM single-cell force spectroscopy; control of the drug series (no drug and no DMSO); cell on cantilever against cell monolayer; velocity not stated for this series
# [7] = target: T1, N- (neural) cadherin of human …; experiment: AFM single-cell force spectroscopy; DMSO control of the drug series; cell on cantilever against cell monolayer
# [8] = target: T1, N- (neural) cadherin of human …; experiment: AFM single-cell force spectroscopy; control of the drug series (no drug and no DMSO); cell on cantilever against cell monolayer; velocity not stated for this series
# [9] = target: T1, N- (neural) cadherin of human …; experiment: AFM single-cell force spectroscopy; with 5 µM ML-7 (myosin light chain kinase inhibited); cell on cantilever against cell monolayer
# [10] = target: T1, N- (neural) cadherin of human …; experiment: AFM single-cell force spectroscopy; living cell on a conA-coated tipless cantilever against a cell monolayer in a Petri dish; approach and retract velocity 3 µm/sec, maximum loading force 3 nN, contact time 2 s; 5% CO2; cadherin type assigned from immunofluorescence
binder,measurement,setting,value
B1,median rupture force (NF–NF cells),[1],97.2 pN
same,median rupture force (SF–SF cells),[1],103 pN
same,median rupture force (NF–NF cells),[2],73.4 pN
same,median rupture force (SF–SF cells),[2],74.2 pN
same,median rupture force (NF–NF cells),[3],31.1 pN
same,median rupture force (SF–SF cells),[3],30.5 pN
same,median rupture force (NF–NF cells),[4],60.2 pN
same,median rupture force (SF–SF cells),[4],48.3 pN
same,median rupture force (NF–NF cells),[5],117 pN
same,median rupture force (SF–SF cells),[5],129 pN
same,median rupture force (NF–NF cells),[6],58.8 pN
same,median rupture force (SF–SF cells),[6],66.2 pN
same,median rupture force (NF–NF cells),[7],52 pN
same,median rupture force (SF–SF cells),[7],53.1 pN
same,median rupture force (NF–NF cells),[8],61.9 pN
same,median rupture force (SF–SF cells),[8],58.4 pN
same,median rupture force (NF–NF cells),[9],48.9 pN
same,median rupture force (SF–SF cells),[9],49 pN
same,median rupture force (NF–NF cells),[10],51.9 pN
same,median rupture force (SF–SF cells),[10],45.2 pN
